Experiment: soluble on expression in E. coli; label from the status in PepcDB or PDB records

Soluble on expression in E. coli, soluble:
MEVTDVRLRRVNTDGRMRAIASITLDHEFVVHDIRVIDGNNGLFVAMPSKRTPDGEFRDITHPINSSTRGKIQDAVLNEYHRLGDTEALEFEEAGAS
MKQTVAAYIAKTLESAGVKRIWGVTGDSLNGLSDSLNRMGTIEWMSTRHEEVAAFAAGAEAQLSGELAVCAGSCGPGNLHLINGLFDCHRNHVPVLAIAAHIPSSEIGSGYFQETHPQELFRECSHYCELVSSPEQIPQVLAIAMRKAVLNRGVSVVVLPGDVALKPAPEGATMHWYHAPQPVVTPEEEELRKLAQLLRYSSNIALMCGSGCAGAHKELVEFAGKIKAPIVHALRGKEHVEYDNPYDVGMTGLIGFSSGFHTMMNADTLVLLGTQFPYRAFYPTDAKIIQIDINPASIGAHSKVDMALVGDIKSTLRALLPLVEEKADRKFLDKALEDYRDARKGLDDLAKPSEKAIHPQYLAQQISHFAADDAIFTCDVGTPTVWAARYLKMNGKRRLLGSFNHGSMANAMPQALGAQATEPERQVVAMCGDGGFSMLMGDFLSVVQMKLPVKIVVFNNSVLGFVAMEMKAGGYLTDGTELHDTNFARIAEACGITGIRVEKASEVDEALQRAFSIDGPVLVDVVVAKEELAIPPQIKLEQAKGFSLYMLRAIISGRGDEVIELAKTNWLR
MRWNICVVGAGKIGQMIAALLKTSSNYSVTVADHDLAALAVLNRMGVATKQVDAKDEAGLAKALGGFDAVISAAPFFLTPIIAKAAKAAGAHYFDLTEDVAATNAVRALAEDSQT
MNKLRKTIGRLEVKCKNADAGCIVTCPLAHRKGHQDSCPFELTACPNEGCTSQVPRGTLAEHRQHCQQGSQQRCPLGCGATLDPAERARHNCYRELHNAWSVRQERRRPLLLSLLRRVRWLDQATSVVRRELAELSNFLEEDTALLEGAPQEEAEAAPEGNVGAEVVGEPRANIPCK
MSLKIIAFYLPQFHQIKENDRWWGKGFTEWTNTKSAQPLFSGHYQPREPYQDFYYDLTTPSVRKWQAEIAKAYGIYGFCYYHYWFKGKRLLETPFNEVLKMKEPDFPFCLSWANEPWTKSWDGLDKHILMPQDYGDISDWKEHFDYLLQAFQDERYIYIDDKPLFIIYRPGHIPDCEKMLNYWNALARENGLKGIYFAETLNSFPLPNINGFDASIQFEPFYTIAHDSSSDINKVIYDSDMQLNVWDYDKVWMYILQRSLPKKKTFPGAFVDWDNTARRKNANSSIFVGSTPEKFTIYLSKQIHRTYSFYNSEFLFINAWNEWAEGTYLEPDKKYGFSYLEGVKNAIDRGMKAYKKDEGHHHHHH
MHHHHHHSSGRENLYFQGNAVLTWNNEILPNWETMWCSRKVRDLWWQGIPPSVRGKVWSLAIGNELNITHELFDICLARAKERWRSLSTGGSEVENEDAGFSAADREASLELIKLDISRTFPNLCIFQQGGPYHDMLHSILGAYTCYRPDVGYVQGMSFIAAVLILNLDTADAFIAFSNLLNKPCQMAFFRVDHGLMLTYFAAFEVFFEENLPKLFAHFKKNNLTPDIYLIDWIFTLYSKSLPLDLACRIWDVFCRDGEEFLFRTALGILKLFEDILTKMDFIHMAQFLTRLPEDLPAEELFASIATIQMQSRNKKWAQVLTALQKDSREMEKG
MAHHHHHHMMSKPHHATLESIKYTPGSLRLLDQRKLPLETVFDDVLTVEDIWSAIKEMRVRGAPAIAVSAALGIAVATQRKAANGELKSGREVQTFLLTSCDFVMTSRPTAVNLFNCLRDLKAQVDKLDPTKAAAEVAQAFVELAEAVYTNDVAFNEGIMRHGAAHILAAAKAEGRDKVSILTICNTGALATSRYGTALGVVRQLFYDGKLERVYACETRPWNQGARLTVYECVQEDIPCTLICDGAASSLMLNRKIDAVVVGADRICQNGDTANKIGTYNLAVSAKFHGVKLYVAAPTTTLDVKTASGNHVEIEEREPTEITTNLVTKQRVVADGPHLSIWNPVFDITPSELITGGIITEKGVQAPAASAPYYDIASIIAQA
MHLLLLHGFTSHPVLTLGPLSERLKEAGWEVRQPALPGHGTRPEDLLKVRFQDWLLAAEEAYLELPEPRGVVGLSMGGLLAAHLAARHPTKALVALAPAFALKNPLAPYLHWLIPRFPGPPSIEDPELRKRNPNYPYFPTRAVLELLALMRKTPEVLPRVKARALVVEAGKDRVVKGVDRYFALLGSPRKDHLVFPESGHDLLLDRDREEVARAVRDWLLASDNYLQ
MGSSHHHHHHMDRYEIKGVDVASYQGDIDWRELEKQNMKFAFIKATEGSAFVDKYFSKNWTNANKTSMRVGAYHFFSFDSKGETQAEQFIRNVPKYKQALPPVIDVEFYANKKDNPPKREDVTKELSVMIEMLEKHYGKKVILYATQEAYDLYIKDAYPQCDIWIRSVLTKPSLSDERKWTFWQYTNRGKLSGYNGKEKYIDLNVFYGNEEEFENYGMKD

Soluble on expression in E. coli, not soluble:
MGSDKIHHHHHHMRLIGLTDLHNRIINFDKLLRYKPDAILISGDFTKCSFAKSANQNDSFEVITEQDTRIIDFLENLNNKIKVFIIPGNWENLDTIQKMNESGLNIDEKLVKFHDTIFIGLGGSNKTPICSPNEYSEDEIYERFIKILKNEKTDVKNNFILLSHVPPKDTMADRCEAGHVGSSAVRKIIEEFKPVLCACGHVHESRSIDKIGNTLIVNPSSTGFFIYDTKTKNLEIHDL
MHDEQFCVGYNFLEAEDTFREDGLEPVTLAIHGTPEVLQLLGNKPLNWDGPISFGLFVDFHSQKALNYISMLHKCDAAFKRQMTVHFAFRISPSQSECPMIQVLGYQDCATFLQKSKQLLEEIEDSFQIYPINLMRNIARRGAKSDLHLIIDTDMMMSTNFAKMVKPIANRMIDGKNKQVLVVRRFETNENELPMSFGDLEEGIENHKTFQFHHKFFFVGHQIPNLMEWFERSHASNDVVAWEIPYTGNDWEVQIILHRNDPYNVEYFPSRVKDMQSLIYKLCRANYTFNLLSHVFNVHKGIKEDDTMYSKVVTAHTKRQGRLRTLSRYVTEIDRKYPDTMKRCGQFLL
EGEPIVEYQVKDLLYDQGVRVELHGKDLVSRVGEMTLDKVYYAFSKFFGLDIVTDYLEVPQDIPPRPPALCPGCPHRSSFIDLKKAITMASFKPNETFISG
NLEGKGCSVLDQAGLAQKFGPVVSHIRIAARQEDLFAVRIAAGEAHLLLGCDLLVAAGPDAIAKLDSKISHAVINSQQTPTAEFTRNPDAVFPAEAMKQTIIDAVGADKTHFVEATSLATRLMGDSIASNLFMLGYAFQLGLIPLTSAAIEKAIELNGVAVNLNQQAFLWGRRTAHDPAAVEAFVNPQP
MKLKSNNIYEKMNQYSVVGLSLAVIRDGKLDETAAFGTLESGTNRTVTIDSIFNSCSISKFITTILILTLSDLKIVHLDEDVNDRLTSWNIPTNLFTSQKKVTLRNLLSHQSGIIDPPNSFEHYLLAQGQPNMSELLAGKTLYCSVPIEVTYKPESEFHYSDANFCIIEILLEDITGKPFNLLLEESIFQPLQMKNSTIFSPEDIDKTDAFACGHNKDGTVTNEKYPFYPFAAASGIWTTPTDLSALVIEIIHSLQGKGKLKLSQKTVQDMISPQGCSKWTGLGVFLDDLNEDLQIYSLGWGVGFQCMMICYPYRGNGAIIMTNADLGVHQMEGIIGDVLKTLSL
MGSDKIHHHHHHMDSLTELFCLIDDFCCQFEPALERRLLETGVKKRKRCSGLSLSELMTLTVLFHQLRFRQFKSFYLVYVCRHLQAEFPKLPSYQRCVELLPRCVAPLAALFEMLKGQCDGISIADATAIAVCDNRRIARHRVFADSARRGKTSMGWFYGFKLHAIINSRGELIRLRLTAGNVDDRKPMPDLCQGLFGQLFADKGYLAQWLTEALDQQNLQLITPLRKNMRPVPRTRFEKVILRRRSLIETVFDELKNLCQIEHTRHRSLFNFIVNLMAGIVAYCLSDNKPTLNLTRVNSLAKA
MIVPKGNENIRPGYAMEPKYITIHETANTSKGANALNHAKYLDNQARGNTDRSASWHFTVDDKEIYQHLPLNEVGWHAGNKTGNYESIGIEIAVNSDGNYTKAVENAKKLAAYLMNELNISLDHVQKHQFWSGKNCPAFMIQRGQWDAFLKGTNAYYNEHHKDVIPPPEVPHEKDDITGGWYEQDIRQLAARKIMFGDGNGSYWPNRLVTRAEFANLMSRALNLPAGNAKFTDLNEAHPSLVDGINRAASAGIINGRGNNKFDPNATITRDEAVIMIDRALEYNWIYRKEVKLPFTDQHLAYDKKALQNVYAYGIVKGNERNEFVPKGTATRAESAAFLNRMLKVIEA
MGSDKIHHHHHHMKISTHELIAVVSQFNPWWRGESIQDLPTWHRAAYQELELWLIKPPVPRAIFLSGARQIGKTTLLLQAIDKLLKEGVKPGNILYVTFDHPLIKMSDIDAVLEAWREREPKTGDLEYIFIDEAQFMRSWGTWIKHQVDFSKSRRIFFTGSATPIIEADQESGVGRWHTIRLTTLSFYEYLQIKKIDLPQLPTVKTLRELFEWPQQEFYKVKELAVHYVGHFHEYLLRGGFPQTAQVENITQAQRLLREDIIDKVLKRDMTALFGVRRILELEQTFLYLCMHDGGLLDMTDLCSNLEVKRPTIQNYIFLLEATNLIYRLPPFGYGKDILRAKYKIYLADAAIAPAVLLKDKSILDDPESLGIATETAVFKHLFARYYSQNVRFSYWRGTKDHEVDVVAQIGDQIIPFEVKYRSQHTNAKALKGLLELCKKKSIAHGYVVTKSLDDFGIMKALPEIKTNIMQIPAPLLCYWMGESELRQTFGV
MTPYMANTKWVDGSVRSDFPQEKMARLYNLNYTIASQVNPHVVPFMQSDASRYRKDILSWPQRILRRQGKVISLGIMDFTRERLGNVPPVRRLLDHGYGIVGQRYYGDVNIIAPFNLRQYAYMLQNPRPHLFKLLQQQGERATLEHHHHHH
MGSDKIHHHHHHAAQARLDKARAMYENNEFFGAKNEIDSIRALYPKEVKVLKQGLTLMRQVEVKEAERNIAFCDSLLPIKLEEVEGLKKGFAFEKDSVYEEIGNYIWKQQTIERNVQRCYVRCGVNEEGEMYLASVYYGGRPIEHTGIKLSLKDGQFAETASIPYDGGLNYRFKDMGSTTEVVTYKGEHCVDAVKFIYDNEKERIKVEYTGGKPYIIYMADADKKAIVNTFNLATVLSDIKSMNTLKEKSEKKIAYLKNKLEE
MAHHHHHHMRARPSWHLRLNKNRDDVTTFRGFPATARSCCSIGSISGLQALPHPMELSSVEYRSEGWTHAICRLYRTLYKLHAKQLHPIQREFGDRFVQTEFQRHIDASEKHARIFYQSWYSYAVQLLVGQTSRDMTAEEQQQLTPEQKETMRRLRSHVLQAKQSEPGFHL
DHIPGTDIDLTVPYAAEGPGPTVNTLGDVDGKPVVNVSGAEIHKTTGNLNMTTVSVRTHLTLGQALGRWLIAHDTLVPIEQIFPQGKTPEEVDEVNKAAFSTSEASATIAAMNQLHKPVDT
MAHHHHHHMYRSSGELRKYAQCVFALYCLDDGLSISRFRLAWYVLWGKWPEESVVQMLFDKKDKSTGGNEDPTGEEGGIVGSGGLAEKDKHHDGGTPLAQSFPFSALRRRINEKEFVRFAVTYHDTMGADAVGFGVTEEDGEYATVDMQSAFSGVVRARHWLQFHALAGSKGYVTLDDLIATEKVDWLYPPMSGGSASGLMVEQAGDDSSTMPQDDVDRRLAVLSHVFAIIDGDHDGKLNFEDVTRHLAKTA
MKPVKSGLDSISKYLRTKKEVGRRKIGLLVDGPNILRKEFDVNLEEIRDVLKDYGNIKIGRVFLNQYASDKLVEAIENHGLEPIICSSDVDVRLAVEGMELVYNPNIDTLAIVTRDADFKPLLNKANEHGKETIIFGVEPGFSTALKNSADYVILMGKNHMSGYDDEDEEGKPDASERGEYHEEYPEDEYGESMEKT
